Source: patent US5763284A, “Methods for peptide synthesis and purification” (Dade International Inc., priority 1995, dated 1998)

Legend:
D011 cells = assay: Loading of A20 APC and activation of D011 T cells, IL-2 release ELISA; assay type: cell-based, murine; settings: DO11 and A20 cells, 24 hours
Procedure: The efficacy of a fusion polypeptide of the invention to load APCs and activate T cells was tested. A penI:Ova fusion polypeptide (i.e., a fusion polypeptide containing the penI protein linked to an Ova target peptide) was employed as well as other materials. Three independent experiments were performed utilizing A20 APC and the D011 T cell […] cell line. D011 cells are specifically responsive to Ova loaded major histocompability complex class II (MHCII) molecules presented by A20 APCs. A20 cells were loaded with 5 μg purified penI:Ova fusion polypeptide or 5 μg synthetic Ova peptide (positive control synthesized by Mimetics, Chiron Corp.) for 1 hour. 1×10^5 D011 cells were added and incubated with the loaded A20 cells for 24 hours. The degree of activation of D011 cells was determined by the release of Interleukin 2 (IL-2) into the culture medium. After 24 hours of incubation supernatants were collected and analyzed in an ELISA format for IL-2 (using two anti-IL2 antibodies from Pharmacia).
The following Table summarizes the results of the three experiments and includes several negative controls. One of these controls is a PenI:Ova fusion protein containing the hen egg lysozyme (HEL) peptide preceded by the Factor Xa cleavage recognition site IEGRNLCNIPCSALLSS (SEQ ID NO: 55) and therefore should not stimulate D011 cells.

TA1 antibody = assay: BIAcore surface plasmon resonance binding of PenI:C9 muteins to immobilized TA1; parameters: species or system mouse; settings: 30 μg/mL injected; relative response of wild type PenI:C9 set to 100%
Source text: In order to analyze the different binding of the different PenI:C9 muteins to the TA1 antibody (TA1 was raised from a mouse that had been immunized with F1.2-C9 KLH by standard procedures; F1.2-C9 is the purified factor Xa cleavage product of prothrombin), a biosensor system using surface plasmon resonance detection (BIAcore, Pharmacia Biosensor) has been used. This system records the binding of the antigen to the immobilized TA1 in real time.
TA1 has been chemically immobilized onto the carboxymethylated dextran matrix of the sensor chip (CM5) using the amine coupling kit and the method provided by the manufacturer (Pharmacia Biosensor). For this purpose TA1 was diluted to 57 μg/mL in 10 mM Na-acetate buffer pH4. After activation of the sensor chip with 30 μl of a 1:1 mixture of 11.5 mg/mL N-hydroxysuccinimide (NHS) and 75 mg/ml N-ethyl-N'-(dimethylaminopropyl) carbodiimide (EDC) 5 μL of the TA1 solution was injected at a flow rate of 3 μL/min. […]
Each PenI:C9 and the native PenI protein was injected according to this program and a relative response in RU which represent the amount of penI:C9 mutein bound, was calculated by subtracting the RU of report point 1. from report point 2. Percent of binding was then calculated by setting the relative response of the wild type to 100%. […]

B1: PenI: penI repressor protein of Bacillus licheniformis without fusion peptide; negative control (protein, UniProt P06555 1-128, looked up)
Penicillinase repressor: MKKIPQISDAELEVMKVIWKHSSINTNEVIKELSKTSTWSPKTIQTMLLRLIKKGALNHHKEGRVFVYTPNIDESDYIEVKSHSFLNRFYNGTLNSMVLNFLENDQLSGEEINELYQILEEHKNRKKE
IL-2 release (D011 cells; Experiment 1): 0 pg/mL
IL-2 release (D011 cells; Experiment 2): 0 pg/mL
IL-2 release (D011 cells; Experiment 3): 0 pg/mL
Percent of binding to TA1 (TA1 antibody): < 5%
